Assay results reported in the supplement of paper PMC7125110.
± gives the standard error. For some of these results: This sample holds only a part of the variants without activity.

B1: glmS ribozyme (parent)
chain: AUAAAAGCGCCAGAACUACAGAAAUGUAGUUGACGAGGAGGAGGUUUAUCGAAUUUUCGGCGGAUGCCUCCAAA

Tests used:
Conditions in all cases: with glucosamine-6-phosphate
glucosamine-6-phosphate [1] = variants of: B1; assay: kcat; higher = faster cleavage; RNA array
How it was run: (§1)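 On sequenced MiSeq chips, barcoded ribozyme variants were made in situ by E. coli RNA polymerase and followed at 37 °C through a hybridised Cy3 probe. Glucosamine-6-phosphate was flowed in at 40 μM to 10 mM in HEPES/KCl/Mg(OAc)2 buffer. Exponential fits to normalised per-tile medians gave kobs, and weighted Michaelis–Menten fits gave kcat and KM.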

glucosamine-6-phosphate [2] = variants of: B1; assay: self-cleavage kobs at 2500 uM GlcN6P; higher = faster cleavage; RNA array
How it was run: as §1

glucosamine-6-phosphate [3] = variants of: B1; assay: self-cleavage kobs at 10000 uM GlcN6P; higher = faster cleavage; RNA array
How it was run: as §1

glucosamine-6-phosphate [4] = variants of: B1; assay: KM; higher = weaker cofactor use; RNA array
How it was run: as §1

glucosamine-6-phosphate [5] = variants of: B1; assay: self-cleavage kobs at 40 uM GlcN6P; higher = faster cleavage; RNA array
How it was run: as §1

glucosamine-6-phosphate [6] = variants of: B1; assay: self-cleavage kobs at 160 uM GlcN6P; higher = faster cleavage; RNA array
How it was run: as §1

glucosamine-6-phosphate [7] = variants of: B1; assay: self-cleavage kobs at 640 uM GlcN6P; higher = faster cleavage; RNA array
How it was run: as §1

| Variant | kcat (glucosamine-6-phosphate [1]) [s⁻¹] | self-cleavage kobs at 2500 uM GlcN6P (glucosamine-6-phosphate [2]) [s⁻¹] | self-cleavage kobs at 10000 uM GlcN6P (glucosamine-6-phosphate [3]) [s⁻¹] | KM (glucosamine-6-phosphate [4]) [µM] | self-cleavage kobs at 40 uM GlcN6P (glucosamine-6-phosphate [5]) [s⁻¹] | self-cleavage kobs at 160 uM GlcN6P (glucosamine-6-phosphate [6]) [s⁻¹] | self-cleavage kobs at 640 uM GlcN6P (glucosamine-6-phosphate [7]) [s⁻¹] |
| --- | --- | --- | --- | --- | --- | --- | --- |
| A48G U56A | 6.12e-05 ± 9.5e-06 | 4.68e-05 ± 7.6e-06 | 5.17e-05 ± 8.2e-06 |  |  |  |  |
| U46C A53U U65G | 0.000127 ± 3.1e-05 | 3.28e-05 ± 1.2e-05 | 7.63e-05 ± 2.5e-05 | 6880 ± 2800 |  |  |  |
| U46G C68U | 0.00128 ± 0.00018 | 0.00102 ± 0.00018 | 0.00116 ± 0.00011 | 1170 ± 300 | 5.92e-05 ± 9.5e-06 | 0.000148 ± 2.3e-05 | 0.000378 ± 5.2e-05 |
| U46A U69G | 7.21e-05 ± 2.1e-05 | 8.42e-05 ± 1.3e-05 | 4.27e-05 ± 1.3e-05 |  |  |  | 0.000107 ± 1.7e-05 |
| U47G A52C | 1.4e-05 ± 1.8e-06 |  |  |  |  |  |  |
| U47G A52G | 0.000681 ± 0.00017 | 0.000443 ± 6.8e-05 | 0.000619 ± 0.00013 | 1570 ± 620 |  | 8.74e-05 ± 1.5e-05 | 0.00017 ± 2.3e-05 |
| A48U C70U | 0.000821 ± 0.00021 | 0.000416 ± 6.2e-05 | 0.000671 ± 9.3e-05 | 2160 ± 900 |  | 5.07e-05 ± 8e-06 | 0.000334 ± 5.5e-05 |
| A48U G51A | 1.23e-05 ± 5.9e-06 |  | < 1e-05 |  | < 1e-05 |  |  |
| U46A C67A | 0.00257 ± 0.00048 | 0.00266 ± 0.00097 | 0.00209 ± 0.0006 | 1060 ± 330 | 8.65e-05 ± 2.9e-05 |  | 0.000988 ± 0.0002 |
| U46A C67G | 0.000319 ± 2.1e-05 | 0.000187 ± 3.5e-05 | 0.000254 ± 3.3e-05 | 2290 ± 290 |  |  | 6.75e-05 ± 1.1e-05 |
| U49A G66C | < 1e-05 |  |  |  |  |  | < 1e-05 |
| U47C U57A | 0.000495 ± 0.00012 | 2.94e-05 ± 1.3e-05 | 0.0001 ± 2.7e-05 |  |  |  |  |
| A48C U56A | 0.000146 ± 3.6e-05 | 7.8e-05 ± 1.6e-05 | 0.000107 ± 1.7e-05 |  |  |  |  |
| A48C U56G | 0.000214 ± 2.7e-05 | 6.9e-05 ± 1.3e-05 | 0.000135 ± 2.8e-05 | 5570 ± 1300 |  |  |  |
| U45C C70G | 0.00245 ± 0.00063 | 0.000381 ± 7.3e-05 | 0.001 ± 0.00025 |  |  | 3.27e-05 ± 1.6e-05 | 8.88e-05 ± 3.7e-05 |
| U45C G66U | 0.000814 ± 9.5e-05 | 0.000326 ± 8.3e-05 | 0.000653 ± 8.2e-05 | 2830 ± 630 |  | 4.7e-05 ± 1.5e-05 | 0.000151 ± 3.2e-05 |
| U46A U54C | 0.00402 ± 0.0012 | 0.00157 ± 0.00051 | 0.00295 ± 0.00051 | 3310 ± 1300 | 4.31e-05 ± 1.1e-05 | 0.000153 ± 3.9e-05 | 0.000982 ± 0.00017 |
| U46A U54A | 0.00331 ± 0.00047 | 0.00181 ± 0.00029 | 0.00334 ± 0.00047 | 1420 ± 350 | 0.000104 ± 1.9e-05 | 0.000321 ± 8.4e-05 | 0.000932 ± 0.00035 |
| U45G A52G | 0.000403 ± 0.0001 | 0.000142 ± 3.2e-05 | 0.000345 ± 6e-05 | 3100 ± 1400 |  |  | 8.01e-05 ± 1.6e-05 |
| U49A | 2.06e-05 ± 1.8e-06 | 2.11e-05 ± 3e-06 | 1.9e-05 ± 1.6e-06 |  | < 1e-05 |  |  |
| U49G | 0.00147 ± 0.00022 | 0.000807 ± 4.3e-05 | 0.00113 ± 4.5e-05 | 2840 ± 550 | 2.57e-05 ± 1.3e-06 | 7.59e-05 ± 2.5e-06 | 0.000258 ± 7.3e-06 |
| U46G C70G | 0.00028 ± 2.1e-05 | 0.000263 ± 3.4e-05 | 0.000258 ± 2.6e-05 | 192 ± 44 | 4.54e-05 ± 1.1e-05 | 0.000122 ± 1.7e-05 | 0.000265 ± 3.3e-05 |
| U46G U55C | 0.0109 ± 0.0051 | 0.00371 ± 0.00062 | 0.0103 ± 0.0013 |  | 0.000264 ± 3.5e-05 | 0.000497 ± 5.4e-05 | 0.00171 ± 0.00029 |
| U46G U55A | 0.0163 ± 0.0061 | 0.00456 ± 0.0013 | 0.0133 ± 0.0027 |  | 0.000166 ± 3.9e-05 |  | 0.0028 ± 0.00069 |
| U46G U55G | 0.00623 ± 0.0016 | 0.00414 ± 0.001 | 0.00533 ± 0.00091 | 2040 ± 690 | 0.000153 ± 2.1e-05 | 0.000395 ± 8.6e-05 | 0.00125 ± 0.00021 |
| U45C U65C | 0.000282 ± 2.2e-05 | 7.8e-05 ± 1.7e-05 | 0.000167 ± 4.8e-05 | 6720 ± 780 |  |  |  |
| U45G A53C | 0.00249 ± 0.00031 | 0.00179 ± 0.00022 | 0.00197 ± 0.00021 | 1820 ± 370 | 5.63e-05 ± 8.5e-06 | 0.000176 ± 3.1e-05 | 0.000627 ± 0.00012 |
| U47C C58G G59A C61U C71A | 1.36e-05 ± 3.4e-06 |  |  |  |  |  |  |
| U47C U54C | 0.00359 ± 0.00063 | 0.00299 ± 0.00053 | 0.00275 ± 0.00046 | 1240 ± 310 | 9.72e-05 ± 1.5e-05 | 0.000434 ± 7.2e-05 | 0.00141 ± 0.00017 |
| U47G U69G | 5.3e-05 ± 8.9e-06 | 7.13e-05 ± 9.6e-06 | 4.09e-05 ± 5.2e-06 |  | 4.11e-05 ± 9e-06 | 5.87e-05 ± 1.3e-05 | 7.19e-05 ± 9.1e-06 |
